Results reported in article PMC7504130.

Target: PARP-1 (UniProt P09874)
Assay: EMSA
Details: EMSA: 20 mM Tris-HCl pH 8, 30 mM KCl, 1.5 mM MgCl2, 1 mM DTT, 8% glycerol, 50 uM ZnAc, 2.5 ng/mL poly[dI-dC], 25 C, 50 nM DNA; pull-down: 20 mM Tris-HCl pH …

PARP-1, sequence (P09874 2-1014): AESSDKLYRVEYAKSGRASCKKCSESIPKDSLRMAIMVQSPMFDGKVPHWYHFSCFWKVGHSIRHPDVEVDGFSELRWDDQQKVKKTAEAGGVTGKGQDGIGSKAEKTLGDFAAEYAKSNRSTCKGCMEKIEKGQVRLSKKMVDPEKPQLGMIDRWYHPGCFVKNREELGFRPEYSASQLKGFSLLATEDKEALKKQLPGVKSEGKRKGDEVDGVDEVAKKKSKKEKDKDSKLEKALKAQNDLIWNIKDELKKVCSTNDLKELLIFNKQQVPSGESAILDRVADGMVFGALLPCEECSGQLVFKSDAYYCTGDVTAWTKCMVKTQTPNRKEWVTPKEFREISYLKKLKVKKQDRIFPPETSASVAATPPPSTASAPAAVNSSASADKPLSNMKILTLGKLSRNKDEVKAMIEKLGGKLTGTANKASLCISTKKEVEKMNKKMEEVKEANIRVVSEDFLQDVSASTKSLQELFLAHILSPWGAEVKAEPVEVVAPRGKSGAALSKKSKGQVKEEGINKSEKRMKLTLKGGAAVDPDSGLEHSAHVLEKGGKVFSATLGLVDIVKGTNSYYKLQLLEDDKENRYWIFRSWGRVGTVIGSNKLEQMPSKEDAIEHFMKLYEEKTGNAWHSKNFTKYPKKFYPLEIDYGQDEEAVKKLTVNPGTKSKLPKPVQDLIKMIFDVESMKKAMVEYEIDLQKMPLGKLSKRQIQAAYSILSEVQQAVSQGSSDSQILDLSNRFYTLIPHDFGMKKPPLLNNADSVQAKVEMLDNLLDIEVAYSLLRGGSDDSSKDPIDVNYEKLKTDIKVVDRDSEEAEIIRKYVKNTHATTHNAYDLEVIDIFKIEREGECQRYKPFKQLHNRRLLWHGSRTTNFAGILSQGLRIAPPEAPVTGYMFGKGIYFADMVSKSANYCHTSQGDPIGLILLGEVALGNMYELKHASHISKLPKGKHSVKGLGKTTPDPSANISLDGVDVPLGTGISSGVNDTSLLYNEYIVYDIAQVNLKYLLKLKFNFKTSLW

**Q.** “CGGGCCGGCGGGGGAGGAGCGGGGGCCGGGC [Cy5.5-mid2 (G4 mid2)]” was tested. Which Kd did it give?
**A.** 370 nM

**Q.** With “AGGGCGGTGTGGGAAGAGGGAAGAGGGGGAGG [Cy5.5-32R (G4 32R)]” as the sequence, how does the Kd read?
**A.** 200 nM

**Q.** With “CGGGGAGAAGGAGGGGGCCGGGCCGGGC [Cy5.5-mid1 (G4 mid1)]” as the sequence, how does the Kd read?
**A.** 360 nM
